Reference: patent US20240277803A1, “NME INHIBITORS AND METHODS OF USING NME INHIBITORS” (Minerva Biotechnologies Corporation, priority 2013, published 2024)

How the values were obtained:
[1] = molecular target: T1, MUC1* extra cellular domain peptide (Homo sapiens, UniProt P15941); assay: gold nanoparticle binding assay, NME7 and MUC1* peptide (FIG. 7); conditions: protein added free in solution
T1 sequence (P15941 with tags, fused parts or gaps): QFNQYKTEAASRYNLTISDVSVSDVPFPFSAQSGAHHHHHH
Method: Gold nanoparticles of a diameter of 30.0 nm were coated with an NTA-SAM surface according to Thompson et al. (ACS Appl. Mater. Interfaces, 2011, 3 (8), pp 2979-2987). The NTA-SAM coated gold nanoparticles were then activated with an equal volume of 180 uM NiSO4, incubated for 10 min at room temperature, washed, and resuspended in a 10 mM phosphate buffer ([…]). The gold nanoparticles were then loaded with PSMGER N-10 peptide ([…] (SEQ ID NO:155)) at 0.5 uM final concentration, and incubated at room temperature for 10 min. Recombinant NME7-AB protein expressed and purified from E. coli was added free in solution at the concentrations indicated. When particle-immobilized proteins bind to each other, or simultaneously bind to two different peptides on two different particles, the particle solution color changes from pink/red to purple/blue. If the protein added free in solution causes particle aggregation, it is strong evidence that the free protein dimerizes the cognate peptide, since binding to a single peptide would not induce two or more particles to be brought into close proximity to each other.
The NME7-AB is added free in solution at the concentrations indicated. Solution color change from pink to purple/blue from particle aggregation indicates binding between the MUC1* peptide on the particles and NME7 free in solution. […] Particle aggregation, indicating NME7 can simultaneously bind to two peptides is observed. […] The T47D breast cancer cell line Lysate, which contains native NME7 turns noticeably purple also.

T47D breast cancer cells = assay: engraftment and growth of T47D cells mixed with NME7-AB in mice (FIG. 51); assay type: in vivo, Immune-compromised mice
Text: For example, some cancer cells are very difficult to engraft in animals. We increased the engraftment rate of cancer cells by several fold by injecting the animal with human NME7 or NME7-AB. Immune-compromised mice were implanted with T47D breast cancer cells that were mixed 50/50 vol/vol with either Matrigel or NME7-AB. After 10 days, the mice that had received the NME7 mixed cells were additionally injected with NME7-AB every day (FIG. 51). […] Engraftment rates, decreased numbers of required cells and a faster tumor growth rate resulted when NME7-AB was mixed with the cancer cells when implanted and when the mice were injected every 24 or 48 hours after implantation. A range of ratios of cancer cells to NME7 or the injection schedule of NME7 is expected to vary from one mouse strain to another and from one tumor type to another. In an improvement over this method, animals that are transgenic for human NME7 or NME7-AB greatly increase engraftment rates of cancer cells and thus, decrease the number of cells required to develop into a tumor in an animal. This allows growth of primary patient cancer cells in an animal expressing human NME7 or NME7-AB.

[2] = molecular target: T2, MUC1* extra cellular domain peptides (Homo sapiens, UniProt P15941); assay: ELISA sandwich assay, NME7-AB dimerizes MUC1* peptide (FIG. 8); assay type: binding
T2 sequence (P15941 1110-1154): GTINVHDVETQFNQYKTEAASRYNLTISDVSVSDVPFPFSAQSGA
Text: We made several constructs for expression of a human NME7. One of these constructs expressed well in E. coli, was secreted in soluble form as a monomer and functioned approximately as NME1 dimers did for promoting stem cell growth, pluripotency and inhibition of differentiation. In this construct, the leader sequence “DM10” was omitted from the sequence. This generated a species that was approximately the same molecular weight, 33 kDa, as the secreted form of the protein. The protein was made as a Histidine tagged protein and first purified over an NTA-Ni column, then by FPLC with greater than 98% purity. We call this form of NME7, NME7-AB. […]
The PSMGFR peptide bearing a C-terminal Cysteine (PSMGFR-Cys) was covalently coupled to BSA using Imject Maleimide activated BSA kit (Thermo Fisher). […] After 1h at RT the plate was washed 3× with PBS-T and binding of NME7 was measured at 415 nm using a ABTS solution (Pierce). […]
After 1h at RT the plate was washed 3× with PBS-T and HisTagged PSMGFR peptide (PSMGFR-His) or biotinylated PSMGFR peptide (PSMGFR-biotin), diluted in PBS-T+1% BSA, was added at different concentration. […] After 1h at RT the plate was washed 3× with PBS-T and binding of PSMGFR peptide to NME7 already bound to another PSMGFR peptide (which could not signal by anti-His antibody or by streptavidin) coupled BSA was measured at 415 nm using a ABTS solution (Pierce).

B1: NME7-AB: recombinant human NME7 of NDPK A and B domains without the DM10 leader sequence, ~33 kDa (SEQ ID NO:39) (protein, listed as Homo sapiens)
chain: MEKTLALIKPDAISKAGEIIEIINKAGFTITKLKMMMLSRKEALDFHVDHQSRPFFNELIQFITTGPIIAMEILRDDAICEWKRLLGPANSGVARTDASESIRALFGTDGIRNAAHGPDSFASAAREMELFFPSSGGCGPANTAKFTNCTCCIVKPHAVSEGLLGKILMAIRDAGFEISAMQMFNMDRVNVEEFYEVYKGVVTEYHDMVTEMYSGPCVAMEIQQNNATKTFREFCGPADPEIARHLRPGTLRAIFGKTKIQNAVHCTDLPEDGLLEVQYFFKILDN
modifications: Human NME7-AB
binding to MUC1* peptide on nanoparticles (color change pink to purple/blue) [1]: turned purple almost immediately
binding to MUC1* peptide on nanoparticles (color change pink to purple/blue) ([1]; listed as NME7): has two binding sites for the MUC1* peptide
engraftment rate of cancer cells (T47D breast cancer cells; animal injected with human NME7 or NME7-AB): several fold
tumor size and growth rate (T47D breast cancer cells; cells mixed 50/50 vol/vol with NME7-AB, then injected every day, tumor promotion): larger tumors that grew at an accelerated rate
simultaneous binding of two MUC1* extra cellular domain peptides (ELISA) [2]: can simultaneously bind two MUC1* extra cellular domain peptides
